We go through one molecule from patent US20260055369A1, “METHOD FOR GENERATING CELLS OF THE T CELL LINEAGE WITH ENGINEERING BROADLY REACTIVE HUMAN NOTCH LIGAND” (H. Lee Moffitt Cancer Center and Research Institute, Inc., priority 2022, published 2026).

In assay [1] the target is T1, Notch1 (Homo sapiens, UniProt P46531).
T1 construct: endogenous in cells; host or cells: primary human CD8+ T cells from PBMC
In words: Immunoblot of cleaved Notch1 in CD8+ T cells. Particulars: CD8+ T cells after 96 hours with K32 cells. Format: cell-based. The text has this: For detection of Notch activation in CD8^+ T cells, following co-culture with K32 cell lines, CD8^+ T cells were positively enriched by Magnisort Human CD8^+ T cell positive selection Kit (Invitrogen). Nuclear fraction was isolated using NE-PER Nuclear and Cytoplasmic extraction kit (ThermoFisher). Equal protein amounts of nuclear cell lysates were run on 4-20% gradient Tris-glycine gels (Novex-Invitrogen), transferred to PVDF membranes using an iBlot Gel Transfer Device (ThermoFisher), and immunoblotted with antibodies anti-cleaved Notch1 (Val1744 rabbit mAb, Cell Signaling Technology, 1:1,000), anti-Notch2 (D76A6 rabbit mAb, Cell Signaling Technology, 1:1,000), and anti-β Actin (mouse mAb, Sigma, 1:20,000). Secondary antibodies anti-IgG (anti-rabbit or anti-mouse, GE Healthcare, 1:5,000) conjugated to horseradish peroxidase (HRP) were used for detection of proteins using ECL Western Blot Substrate Reagent (Thermo Fisher Scientific). Images were acquired using a Chemidoc Imaging System and analyzed with Image-Lab software (Bio-Rad).

In another assay the test system is hNotch1. The assay is described as follows: Notch signaling assay using multiple ligand-presentation formats (U2OS hNotch1-Gal4 luciferase). Format: cell-based, human. As for the experimental part:
Notch activation was assayed in different formats (FIG. 14A) including (1) non-specific orientation (0.1 ng/mm^2 of Delta^MAX on well, FIG. 3A), (2) ligand-oriented coupling (10 nM of Delta^MAX on well, FIG. 3B), (3) magnetic beads coated with biotinylated Delta^MAX (ratio 1:20 reporter cells:beads, optimization of ratio is detailed in FIG. 14D), (4) HEK293T-expressing Delta^MAX (ratio 1:1, signal receivers:senders, optimization of ratio can be seen in FIG. 14C), and (5) yeast-expressing Delta^MAX (ratio 1:10, reporter:yeast, optimization of ratio is detailed in FIG. 14B). On day one, U2OS hNotch1-Gal4 cells were detached with trypsin-EDTA, counted in the microscope, and 5×10E5 cells/well transferred to 6-well tissue culture plates (Falcon). On day two, U2OS cells were transfected as described above. On day three, the different activation assays were set up at the same time. For ligand oriented-coupling, streptavidin plates were coated with 10 nM of Delta^MAX as described above. For non-specific adsorption, non-biotinylated Delta^MAX at 0.1 ng/mm was coated as described previously. For activation using streptavidin beads coated with biotinylated Delta^MAX, 200 mg of streptavidin beads (streptavidin MagneSphere paramagnetic particles, Promega) were washed 3 times with 200 μL of DPBS+0.1% BSA using a magnet (Miltenyi), and combined with 20 μg of biotinylated Delta^MAX for 1.5 hours at 4° C. Next, unbound Delta^MAX was washed out three times with 200 μL of DPBS+0.1% BSA, and 100 μL of complexed beads (pre-diluted 1/25 in DPBS) were added to wells. For co-culture activation with HEK293T-expressing Delta^MAX, cells were detached with trypsin-EDTA, quenched with DMEM media, washed with DPBS, and 100 μL containing 20,000 cells in DMEM were added to wells. For activation with yeast cells expressing Delta^MAX on surface, pYAL vector encoding for Delta^MAX (N-EGF5) was electroporated previously into yeast cells, and DLL4 expressed in SGCAA as previously described. Delta^MAX expression was induced 48 hours before Notch activation assay set up. One hundred microliters of yeast cells (2×10E6 cells/mL) in serum-free DMEM were added to the assay plate. Once all the wells contained the desired activation assays, U2OS reporter cells were detached with trypsin-EDTA, and 20,000 cells in 100 μL of DMEM were added per well. All the conditions were supplemented with 2 μg/mL of doxycycline to induce Notch1-Gal4 expression. The assay plate was incubated for 24 hours at 37° C. and 5% CO2. On day four, media was aspirated off and Luciferase Dual-Glo kit (Promega) used to detect firefly and Renilla signals in a luminometer (GloMax, Promega). Negative controls were BSA 0.5% for non-specific adsorption, streptavidin and BSA 2% for ligand oriented-coupling, uncoated streptavidin beads for activation with magnetic beads, HEK293T non-expressing DLL4 for co-culture activation, and yeast expressing PDL-1 ECD for co-culture with yeast. The expression of Delta^MAX in HEK293T and yeast cells was confirmed by flow cytometry (BD Accuri C6 plus) following staining for 1 hour at 4° C. with anti-hDLL4 PE antibody using DPBS+0.5% BSA, and selection buffer, respectively (FIG. 14E). Notch activation is represented as the mean fold-change over the corresponding control±s.d. of three independent biological replicates.

Assay [2] has as its system Notch1. In words: Notch activation with streptavidin-coated polystyrene beads (CHO-K1 N1-Gal4). Format: cell-based. The settings on record: 25 μm beads, ratio 1:1 with reporter cells. As for the experimental part: Biotinylated WT DLL4 or Delta^MAX (26 μg) were coated in 1.33 mg of streptavidin-coated polystyrene beads for 1 hour at 4° C. in DPBS+0.1% BSA. The beads were washed three times with 500 μL of DPBS+0.1% BSA before and after coating. DLL4 pre-coated beads were counted in the microscope and 100 μL containing 30,000 beads combined in ratio 1:1 with 100 μL of α-MEM with CHO-K1 N1-Gal4 reporter cell lines in 96-well tissue culture plates. The plate was incubated for 24 hours at 37° C., 5% CO2, and Notch activation measure by flow cytometry. The data represent Notch activation as a function of mean fluorescent intensity±s.d. of three biological replicates.

The subject of assay [3] is Notch1. In words: Kinetics for Notch activation assay (time course, CHO-K1 N1-Gal4). The class given is cell-based. The settings on record: immobilized at 50 nM; most pronounced in first 4 to 8 hours. As for the experimental part:
96-well tissue culture plates (Coastar) were pre-coated using ligand-oriented coupling as described above with 50 nM of DLL4 biotinylated variants. CHO-K1 N1-Gal4 reporter cells were detached with trypsin-EDTA, washed with DPBS, and 200 μL of α-MEM media containing 30,000 cells were added into wells. Notch activation was analyzed as end-points for 0, 4, 8, 12, 16, 20, and 24-hour measurements. Desired time point wells containing CHO-K1 N1-Gal4 reporter cells were washed once with 200 μL DPBS, detached with trypsin-EDTA, and quenched with 200 μL of α-MEM media. Next, reporter cells were resuspended and analyzed by flow cytometry reading the fluorescence of H2B-mCitrine (BD Accuri C6 Plus). Every time point represents the mean fluorescence intensity of Notch activation as percentage+s.d. of three independent biological replicates. Notch activation was reference-subtracted from a well containing streptavidin, BSA and CHO-K1 N1-Gal4 cells.

Chain of hNotch1 (P46531 19-1664 limits assumed): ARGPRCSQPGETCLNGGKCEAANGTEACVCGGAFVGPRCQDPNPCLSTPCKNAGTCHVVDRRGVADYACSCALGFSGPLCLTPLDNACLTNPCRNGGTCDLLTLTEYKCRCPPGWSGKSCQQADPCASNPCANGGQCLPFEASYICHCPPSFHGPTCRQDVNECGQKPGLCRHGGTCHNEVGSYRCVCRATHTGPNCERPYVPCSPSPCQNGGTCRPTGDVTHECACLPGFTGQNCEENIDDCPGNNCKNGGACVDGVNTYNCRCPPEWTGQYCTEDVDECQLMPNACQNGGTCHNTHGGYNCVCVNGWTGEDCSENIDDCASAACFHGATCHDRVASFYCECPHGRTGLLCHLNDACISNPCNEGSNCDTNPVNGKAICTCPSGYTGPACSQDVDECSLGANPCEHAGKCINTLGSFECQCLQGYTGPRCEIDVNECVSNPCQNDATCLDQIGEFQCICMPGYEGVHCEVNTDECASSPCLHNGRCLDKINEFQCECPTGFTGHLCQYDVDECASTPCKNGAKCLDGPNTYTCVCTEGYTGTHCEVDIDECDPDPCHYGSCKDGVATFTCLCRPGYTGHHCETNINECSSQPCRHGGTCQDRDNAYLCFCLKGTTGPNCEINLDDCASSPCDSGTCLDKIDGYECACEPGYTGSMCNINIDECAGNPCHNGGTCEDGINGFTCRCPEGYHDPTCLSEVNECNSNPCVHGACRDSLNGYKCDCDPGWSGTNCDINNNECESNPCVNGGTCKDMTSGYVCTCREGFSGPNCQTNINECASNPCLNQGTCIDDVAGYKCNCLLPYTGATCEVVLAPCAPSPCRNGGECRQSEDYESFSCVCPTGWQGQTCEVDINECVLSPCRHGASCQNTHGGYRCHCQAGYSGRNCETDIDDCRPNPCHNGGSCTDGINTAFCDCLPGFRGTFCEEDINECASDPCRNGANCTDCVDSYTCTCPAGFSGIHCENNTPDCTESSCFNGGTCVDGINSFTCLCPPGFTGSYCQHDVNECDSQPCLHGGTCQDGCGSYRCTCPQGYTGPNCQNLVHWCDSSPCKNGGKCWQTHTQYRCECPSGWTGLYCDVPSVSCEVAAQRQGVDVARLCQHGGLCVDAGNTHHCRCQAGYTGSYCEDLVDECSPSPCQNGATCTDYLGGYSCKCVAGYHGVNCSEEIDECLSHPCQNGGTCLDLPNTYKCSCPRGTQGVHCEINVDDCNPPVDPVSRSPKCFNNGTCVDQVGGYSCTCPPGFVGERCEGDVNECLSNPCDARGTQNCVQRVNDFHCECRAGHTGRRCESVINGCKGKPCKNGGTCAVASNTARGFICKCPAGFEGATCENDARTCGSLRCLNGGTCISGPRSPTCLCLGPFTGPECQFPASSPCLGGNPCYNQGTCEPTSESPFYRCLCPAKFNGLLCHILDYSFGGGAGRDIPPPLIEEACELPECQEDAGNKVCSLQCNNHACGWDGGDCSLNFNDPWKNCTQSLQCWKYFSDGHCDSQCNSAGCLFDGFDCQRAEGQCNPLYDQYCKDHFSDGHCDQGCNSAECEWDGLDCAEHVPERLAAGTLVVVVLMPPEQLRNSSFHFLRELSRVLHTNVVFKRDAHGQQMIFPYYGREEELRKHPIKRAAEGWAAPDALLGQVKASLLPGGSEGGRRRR
Chain of hNotch1 (P46531 1665-1756 limits assumed): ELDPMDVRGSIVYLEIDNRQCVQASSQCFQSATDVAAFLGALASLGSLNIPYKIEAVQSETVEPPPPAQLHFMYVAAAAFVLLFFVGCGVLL
Chain of Notch1 (P46531 295-488 limits assumed): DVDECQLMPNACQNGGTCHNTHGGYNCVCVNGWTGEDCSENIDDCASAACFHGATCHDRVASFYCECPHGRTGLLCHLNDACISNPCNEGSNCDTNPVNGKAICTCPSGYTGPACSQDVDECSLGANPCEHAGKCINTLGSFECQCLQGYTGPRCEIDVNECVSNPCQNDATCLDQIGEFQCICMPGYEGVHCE
T1 sequence (P46531 19-2555): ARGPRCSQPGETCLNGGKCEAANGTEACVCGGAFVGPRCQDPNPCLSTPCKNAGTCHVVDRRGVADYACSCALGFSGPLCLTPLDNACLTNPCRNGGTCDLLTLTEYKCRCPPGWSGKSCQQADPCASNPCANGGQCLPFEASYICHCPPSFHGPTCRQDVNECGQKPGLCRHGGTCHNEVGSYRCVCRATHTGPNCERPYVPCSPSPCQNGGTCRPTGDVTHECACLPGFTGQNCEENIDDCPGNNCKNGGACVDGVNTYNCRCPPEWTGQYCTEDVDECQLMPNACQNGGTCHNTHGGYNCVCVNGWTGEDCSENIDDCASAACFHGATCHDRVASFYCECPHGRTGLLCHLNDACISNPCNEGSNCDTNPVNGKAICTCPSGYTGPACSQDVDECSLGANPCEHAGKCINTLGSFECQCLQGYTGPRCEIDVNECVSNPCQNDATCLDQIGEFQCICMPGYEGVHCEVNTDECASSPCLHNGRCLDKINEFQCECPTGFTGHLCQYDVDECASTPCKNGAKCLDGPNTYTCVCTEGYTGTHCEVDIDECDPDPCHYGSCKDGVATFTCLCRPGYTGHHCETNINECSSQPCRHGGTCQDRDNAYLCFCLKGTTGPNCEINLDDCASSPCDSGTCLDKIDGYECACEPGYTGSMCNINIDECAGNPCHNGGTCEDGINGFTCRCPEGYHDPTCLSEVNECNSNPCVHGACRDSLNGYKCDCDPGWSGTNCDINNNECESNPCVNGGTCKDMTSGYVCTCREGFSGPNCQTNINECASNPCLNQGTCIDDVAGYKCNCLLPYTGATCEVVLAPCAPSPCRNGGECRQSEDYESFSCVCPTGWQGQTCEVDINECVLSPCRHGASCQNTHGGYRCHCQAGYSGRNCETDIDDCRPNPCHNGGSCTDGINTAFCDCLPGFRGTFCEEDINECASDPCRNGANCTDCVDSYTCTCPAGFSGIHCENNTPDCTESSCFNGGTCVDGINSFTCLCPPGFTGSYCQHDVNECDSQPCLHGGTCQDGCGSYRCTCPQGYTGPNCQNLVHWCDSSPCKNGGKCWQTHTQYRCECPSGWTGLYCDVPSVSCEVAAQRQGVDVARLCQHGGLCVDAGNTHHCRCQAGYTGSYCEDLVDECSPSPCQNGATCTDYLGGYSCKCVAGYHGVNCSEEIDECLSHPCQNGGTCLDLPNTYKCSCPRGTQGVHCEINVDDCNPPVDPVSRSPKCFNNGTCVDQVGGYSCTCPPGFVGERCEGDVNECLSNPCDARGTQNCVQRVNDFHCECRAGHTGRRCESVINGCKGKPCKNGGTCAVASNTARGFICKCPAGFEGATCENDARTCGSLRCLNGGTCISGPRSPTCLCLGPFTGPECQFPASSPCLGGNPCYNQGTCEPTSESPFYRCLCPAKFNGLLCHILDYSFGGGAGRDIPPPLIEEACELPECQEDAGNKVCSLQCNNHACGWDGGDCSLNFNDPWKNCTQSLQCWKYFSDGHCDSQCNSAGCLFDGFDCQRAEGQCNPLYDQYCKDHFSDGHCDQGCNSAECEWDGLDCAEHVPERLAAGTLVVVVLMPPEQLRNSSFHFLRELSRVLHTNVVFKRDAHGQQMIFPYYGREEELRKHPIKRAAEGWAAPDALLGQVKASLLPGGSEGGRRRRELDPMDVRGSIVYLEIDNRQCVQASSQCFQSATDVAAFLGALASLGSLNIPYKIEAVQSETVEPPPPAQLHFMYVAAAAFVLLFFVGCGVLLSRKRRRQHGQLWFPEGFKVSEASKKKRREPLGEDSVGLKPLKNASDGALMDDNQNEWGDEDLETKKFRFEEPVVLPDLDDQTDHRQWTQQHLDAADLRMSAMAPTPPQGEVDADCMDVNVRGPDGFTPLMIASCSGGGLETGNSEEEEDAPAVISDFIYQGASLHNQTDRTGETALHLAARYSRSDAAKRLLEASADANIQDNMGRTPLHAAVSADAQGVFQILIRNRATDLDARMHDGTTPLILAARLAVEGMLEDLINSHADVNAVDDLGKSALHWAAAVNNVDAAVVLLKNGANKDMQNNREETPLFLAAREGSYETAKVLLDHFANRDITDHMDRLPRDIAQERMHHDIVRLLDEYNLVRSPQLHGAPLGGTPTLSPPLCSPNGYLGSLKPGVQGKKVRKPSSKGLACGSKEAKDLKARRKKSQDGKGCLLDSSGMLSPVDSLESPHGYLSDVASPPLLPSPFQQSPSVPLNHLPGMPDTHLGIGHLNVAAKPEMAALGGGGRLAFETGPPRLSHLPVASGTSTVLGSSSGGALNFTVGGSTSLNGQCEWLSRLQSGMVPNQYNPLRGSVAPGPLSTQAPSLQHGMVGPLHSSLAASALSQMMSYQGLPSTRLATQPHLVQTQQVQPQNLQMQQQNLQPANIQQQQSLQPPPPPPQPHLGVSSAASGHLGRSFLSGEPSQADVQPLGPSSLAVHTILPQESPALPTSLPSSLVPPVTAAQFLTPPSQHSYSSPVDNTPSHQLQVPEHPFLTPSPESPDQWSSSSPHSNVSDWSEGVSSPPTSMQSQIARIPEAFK

B1: Delta^MAX: engineered human DLL4 consensus variant with 10 mutations combining DLL4.v1 and DLL4.v2 mutations; sequence matches SEQ ID NO: 4/10 (protein)
chain: SSVFQLQLQEFINERGVLASGRPCEPGCRTFFRVCLKHFQAVVSPGPCTFGTVSTPVLGTNSFAVRDDSSGGGRNPLQLPLNFTWPGTFSLIIEAWHAPGDDLRPEALPPDALISKFAIQGSLAVGQNWLLDEQTSTLTRLRYSYRVICSDNYYGDNCSRLCKKRNDYFGHYVCQPDGNPSCLPGWTGEYCQQPICLSGCHEQNGYCSKPAECLCRPGWQGRLCNECIPHPGCRHGTCSTPWQCLCDEGWGGLYCDQDLNYCTHHSPCKNGATCRNSGPRSYTCTCRPGYTGVDCELELSECDSNPCRNGGSCKDQEDGYHCLCPPGYYGLHCEHSTLSCADSPCFNGGSCRERNQGANYACECPPNFTGSNCE
As to B1, the “Notch1 activation (cleaved ICD) relative to WT DLL4” value with Notch1 [1] is on record as “increased”. Also, the “increase in Notch1 activation relative to controls” value is listed as 15 fold with hNotch1 (co-culture with HEK293T expressing ligand, ratio 1:1); 21 fold with hNotch1 (ligand-coated streptavidin magnetic beads, ratio 1:20 reporter cells:beads); 23 fold in the assay with hNotch1 (non-specific adsorption, 0.1 ng/mm^2); 50 fold in the assay on hNotch1 (oriented coupling on streptavidin plates, 10 nM). Moreover, in the assay with hNotch1 (yeast-displayed, ratio 1:10 reporter:yeast), the “Notch1 activation relative to controls” value is on record as “did not induce a significant change”. For the same molecule, the “reporter activity vs DLL4 microbeads” value in the assay on Notch1 [2] stood at 4.5 fold. Moreover, the “speed of Notch1 activation compared to WT DLL4” value in the assay with Notch1 [3] is “more rapidly”.
